# Reference: article PMC3466257
# Biological target: immobilized fibrin (UniProt P02679)
# Assay: cell-free flow-based adhesion assay of protein-coated microspheres; 10-µm polystyrene microspheres coated with immunopurified CD44 or human IgG (2×10^6/ml in DPBS, 0.1% BSA) perfused for 5 min at 37°C over immobilized fibrin in a parallel plate flow chamber, 0.25 to 0.5 dyn/cm^2; interacting microspheres counted by phase-contrast videomicroscopy
substance,measurement,value
CD44s immunopurified from PDGF-treated HL60 human myeloid cells (from UniProt P16070-12 21-361) (receptor),reduction of binding relative to CD44s from untreated HL60 cells,30%
